Here are results for 41 sequences from the nanobody polyreactivity screen of Harvey et al. (2022).

The series is described as follows: yeast display, Sf9 membrane polyspecificity reagent, FACS + sequencing; frameworks hold sequencing errors. A digest of the protocol:
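Synthetic nanobody libraries on Saccharomyces cerevisiae BJ5465 were galactose-induced for 36–48 hours, stained 1 hour at 4 °C with 10% biotinylated, detergent-solubilized Sf9 membrane reagent and enriched on streptavidin microbeads. FACS then separated cells into low and high (top ~1%) gates by anti-HA (expression) and streptavidin (reagent binding) fluorescence. Genes were colony-PCR amplified, MiSeq 2 × 250 sequenced and CDR-length filtered. A clone's polyreactivity label is that of its gate of origin.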
Take “QVQLVESGGGLVQAGGSLRLSCAASGLIFYDNMGWYIQAPGKEREMVAAISSSGGSTSYADSVKGRFTISRDNAKNTVYLQMNSLKPEDTAVYYCAADSYPAYLGFVGFDYWGQGTQVTVSS”: the “polyreactivity (PSR sort gate)” value was “low polyreactivity”. Regarding “QVQLVESGGGLVQAGGSLRLSCAASGLIFYDNMGWYRQAPGKERELVAAISSSGGSTSYADSVKGRFTISRDNAKKTVYLQMNSLKPEDTAVYYCAAKWSHVRDGPKYDYWGQGTQVTVSS”, the “polyreactivity (PSR sort gate)” value is “low polyreactivity”. As to “QVQLVESGGGLVQAGGSLRLSCAASGLIFYDNMGWYRQAPGKERELVAAISSSGGSTSYADSVKGRFTISRDNAKNTVYLQMNSLKPEDTAVYFCAADSYPAYLGFVGFDYWGQGTQVTVSS”, the “polyreactivity (PSR sort gate)” value is “low polyreactivity”. As to “QVQLVESGGGLVQAGGSLRLSCAASGLIFYDNMGWYRQAPGNERELVAAITVSGGATYYADSVKGRFTISRDNAKNTVYLQMNSLKPEDTAVYYCARELLSPTYQRWYYYWGQGTQVTVSS”, the “polyreactivity (PSR sort gate)” value is reported as “low polyreactivity”. Take “QVQLVESGGGLVQAGGSLRLSCAASGLIFYENAMGWYRQAPGKERELVAAINYDGDSTYYADSVKGRFTISRDNAKNTVYLQMNSLKPEDTAVYYCAADGGWVLFWMDYWGQGTQVTVSS”: the “polyreactivity (PSR sort gate)” value is “low polyreactivity”. In the case of “QVQLVESGGGLVQAGGSLRLSCAASGLIFYGNAMGWYREAPGKERELVAAISRRGGRTYYADSVKGRYTISRDNAKNTVYLQMNSLKPEDTAVYYCAAGVPKNGQAGYDYWGQGTQVTVSS”, the “polyreactivity (PSR sort gate)” value is “high polyreactivity”. With “QVQLVESGGGLVQAGGSLRLSCAASGLIFYGYVMGWYRQAPGKERELVAGISRNSGSTYYADSVKGRFTISRDNAKTTVYLQMNSLKPEDTAVYYCAKAYYRRYAAPGYDYWGQGTQVTVSS”, the “polyreactivity (PSR sort gate)” value is recorded as “low polyreactivity”. Consider “QVQLVESGGGLVQAGGSLRLSCAASGLIFYLYAMGWYRQAPGKERELVAAITSGGGSTYYADSVKGRFTISRDNAKNTVYLQMNSLKPEDTAVYYCAARLVLYITVVYEDDYWGQGTQVTVSS”, for which the “polyreactivity (PSR sort gate)” value is given as “low polyreactivity”. In the case of “QVQLVESGGGLVQAGGSLRLSCAASGLIFYLYTMGWYRQAPGQERELVAAISRSGGSTYYADSVKGRFTISRDNAKNTVYVQMNSLKPEDPAVYYCAALRSRSTYNDYNYWGQGTQVTVSS”, the “polyreactivity (PSR sort gate)” value was “high polyreactivity”. In the case of “QVQLVESGGGLVQAGGSLRLSCAASGLIFYRNAMGWYRQAPGKERELVAAIRFSTGSTYYADSVKGRFTISRDNAKNTVYLQMNSLKPEDTAVYYCAADRRYYWYNYWGQGTQVNVSS” it was “high polyreactivity”. As to “QVQLVESGGGLVQAGGSLRLSCAASGLIFYRNAMGWYRQAPGKERELVAAISVSGGRTYYADSVKGRFTISRDNAKNTVYLQMNSLKPEDTAVYYCAAYGTTRMDYWGQGTQVTVSS”, the “polyreactivity (PSR sort gate)” value was “high polyreactivity”. Turning to “QVQLVESGGGLVQAGGSLRLSCAASGLIFYRYAMGWYRQAPGKERELVAAISARGSSTYYADSVKGRFTISRDNAKNTVYLQMNSLKPEDTAVYYCAAGATGTSYYGGDYWGQGTQVTVSS”, the “polyreactivity (PSR sort gate)” value is reported as “high polyreactivity”.

For “QVQLVESGGGLVQAGGSLRLSCAASGLIFYRYTMGWYRQAPGKERELVAAITSTGTSTYYADSVKGRFTISRDNAKNTVYLQMNSLKPEDTAVYYCAARYIARGKWDYDYWGQGTQVTVSS”, the “polyreactivity (PSR sort gate)” value is “high polyreactivity”. As for “QVQLVESGGGLVQAGGSLRLSCAASGLIFYRYVMGWYRQAPGKEREFVAAISSGGSTYYADSVKGLFTISRDNAKNTVYLQMNSLKPEDTAVYYCNTLSQVFASRAPKFDYWGQGTQVTVSS”, the “polyreactivity (PSR sort gate)” value is recorded as “high polyreactivity”. Take “QVQLVESGGGLVQAGGSLRLSCAASGLIFYVYAMGWYRQAPGKERELVATISSSGGSTYYADSVKGRFTISRDNAKNTVYLQMNSLKPEDTAVYYCAARWSHYRTGWGDTSYHYYYWGQGTQVTVSS”: the “polyreactivity (PSR sort gate)” value is reported as “high polyreactivity”. “QVQLVESGGGLVQAGGSLRLSCAASGLIFYYYAMGWYRQAPGKERELVAAITAIGDRTYYADSVKGRFTISRDNAKNTVYLQMNSLKPEDTAVYYCAAGWLLYNRYGIITYDYWGQGTQVTVSS”: the “polyreactivity (PSR sort gate)” value is “high polyreactivity”. As for “QVQLVESGGGLVQAGGSLRLSCAASGLIFYYYAMGWYRQAPGKERELVAAITTGGGTYYADSVKGRFTISRDNAKNTVYLQMNSLKPEDTAVYYCAVYYRSYWGYEYWGQGTQVTVSS”, the “polyreactivity (PSR sort gate)” value is listed as “high polyreactivity”.

On to “QVQLVESGGGLVQAGGSLRLSCAASGLIIDGYAMGWSRQAPGKERELVATITVSGTSTYYADSVKGRFTISRDNAKNTVYLQMNSLKPEDTAVYYFATDRNYGYYFVEYDHDYWGQGTQVTVSS”, for which the “polyreactivity (PSR sort gate)” value is “low polyreactivity”.

In the case of “QVQLVESGGGLVQAGGSLRLSCAASGLIIRYYAMGWYRQAPGKERELVAAISYNGGSTYYADSVKGRFTISRDNAKNTVYLQMNSLKPEDTAVYYCAARGRYRIGPGRYGKRYDYWGQGTQVTVSS”, the “polyreactivity (PSR sort gate)” value is listed as “high polyreactivity”. In the case of “QVQLVESGGGLVQAGGSLRLSCAASGLILDGYAMGWYRQAPGKERELVAAITRSGGRTYYADSVKGRFTISRDNAKNTVYLQMKSLKPEDPAVYYCAALGWSGRYRYDYWGQGTQVTVSS” it was “high polyreactivity”; in that of “QVQLVESGGGLVQAGGSLRLSCAASGLILGVYTMGWYRQAPGKEREFVASINYGGGSTYYADSVKGRFTISRDNAKNTVYLQMNSLKPEDTAVYYCNARSRWGGTRLYSYDYWGQGTQVTVSS”, “low polyreactivity”. For “QVQLVESGGGLVQAGGSLRLSCAASGLILGYYAMGWYRQAPGKERELVAAISSTGSTNYADSVKGRFTISRDNAKNTVYLQMNSLKPEDTAVYYCAAVPPRKDYQHMDYWGQGTQVTVSS”, the “polyreactivity (PSR sort gate)” value is listed as “low polyreactivity”.

Turning to “QVQLVESGGGLVQAGGSLRLSCAASGLILPYYAMGWYSQARGKERELVAAISRTGGRTSYADSVKVRFTISRDNAKNTVYLLINSLKPEDTAVYYCAAVGQSGGRRYDYWGQGTQVTVSS”, the “polyreactivity (PSR sort gate)” value is listed as “high polyreactivity”. As for “QVQLVESGGGLVQAGGSLRLSCAASGLILPYYTMGWYRQAPGTERELVAAITWGGDSTYYADSVKGRFTISRDNAKNTVYLQMNRLKPEDTAVFYCAAYPQRRFYWQYRYDYWGQGTQVTGSS”, the “polyreactivity (PSR sort gate)” value was “high polyreactivity”.

On to “QVQLVESGGGLVQAGGSLRLSCAASGLILQYYVMGWYRQAPGKERELVAAITRSGGGTYYADSVKGRFTISRDKAKNTVYLQMNSLIPEDTAVYYCAAQRQYGKFDYWGQGTQVTVSS”, for which the “polyreactivity (PSR sort gate)” value is listed as “high polyreactivity”.

For the sequence “QVQLVESGGGLVQAGGSLRLSCAASGLILSAYAMGWYRQAPGKERELVAAISGSGGRTYYADSVKGRFTISRDNAKNTVYLQMNSLKPEDTAVYYCAAPYTYVGSYTYNYWGQGTQVTVSS”, the “polyreactivity (PSR sort gate)” value is “high polyreactivity”. Take “QVQLVESGGGLVQAGGSLRLSCAASGLILSDYAMGWYRQAPGKERELVATITSVGTTKYADSVKGRFTISRDNAKNTVYLQMNSLKPEDTAVYYCAVEWYQGTTYSISYLYDYWGQGTQVTVSS”: the “polyreactivity (PSR sort gate)” value is recorded as “low polyreactivity”. Consider “QVQLVESGGGLVQAGGSLRLSCAASGLILVPNTMGWYRQAPGKERELVAAISYSGGGTYYADSVKGRFTISRDNAKNTVYLQMNSLKAEDTAVYYCAAYVKRESAPYGYWGHGTQVTVSS”, for which the “polyreactivity (PSR sort gate)” value is on record as “low polyreactivity”. For “QVQLVESGGGLVQAGGSLRLSCAASGLILYYYAMGWYRQAPGKEREFVAAISGRGGSTYYADSVKGRFTISRDNAKNTVYLQMNSLKPEDTAVYYCAARVWYKYDHWGQGTQVTVSS”, the “polyreactivity (PSR sort gate)” value is recorded as “high polyreactivity”. For the sequence “QVQLVESGGGLVQAGGSLRLSCAASGLILYYYDMGWYRQAPGKERELVAAISWNGDDTYYADSVKGRFTISRDNAKNTVYLQMNSLKPEDTAVYYCAAEGPPQTDDYWGQGTQVTVSS”, the “polyreactivity (PSR sort gate)” value is “high polyreactivity”.

For the sequence “QVQLVESGGGLVQAGGSLRLSCAASGLISYAYAMGWYRQAPGKERELVAAIRSSGSTYYADSVKGRFTISRDNAKNTVYLQMNSLKPEDTAVYYCAAYVWRRGDGYYYWGQGTQVTVSS”, the “polyreactivity (PSR sort gate)” value is listed as “high polyreactivity”.

Consider “QVQLVESGGGLVQAGGSLRLSCAASGLISYHYAMGWYRQAPGKERELVASISYTGGSTFYADSVKGRFTISRDNAKNTVYLQMNSLKPEDTAVYYCAAYRIWRPSYYYWGQGTQVTVSS”, for which the “polyreactivity (PSR sort gate)” value was “high polyreactivity”. As to “QVQLVESGGGLVQAGGSLRLSCAASGLISYRNAMGWYRQAPGKERELVAAISSDGSTYYADSVKGRFTISRDNAKNTVYLQMNSLKPVDTAVYYCAADYREFDAYGAARTLDFDYWGQGTQVTVSS”, the “polyreactivity (PSR sort gate)” value is given as “low polyreactivity”. Take “QVQLVESGGGLVQAGGSLRLSCAASGLIYVGNAMGWYRQAPGKERELVAAISSRGGRTYYADSVKGRFTISRDNAKNSVYLQMNSLKPEDSAVYYCNAANSQWGFEYWGQGTQVTVSS”: the “polyreactivity (PSR sort gate)” value is “high polyreactivity”. On to “QVQLVESGGGLVQAGGSLRLSCAASGLMLGYYAMGWYRQAPGKERELGATIRRGASTYYADSVKGRLTISRDNAKNTVYLQMNSLKPEDTALYYCAAYGHQFQGDYNYWGPGTQVTVSS”, for which the “polyreactivity (PSR sort gate)” value is listed as “low polyreactivity”. For the sequence “QVQLVESGGGLVQAGGSLRLSCAASGLNFRAYAMGWYRQAPGKERELVAAITWNGGSTNYADSVKGRFTISRDNAKNTVYLQMNSLKPEDTAVYYCNKYRISGLSKFYYWGQGTQVTVSS”, the “polyreactivity (PSR sort gate)” value is given as “high polyreactivity”. Take “QVQLVESGGGLVQAGGSLRLSCAASGLPSKLMHMGWYRQAPGKERELVAAISSSGGRTYYADSVKGRITISRDNAKNTVYLQMNILKPEDTAVYYCAATARYRSYSASYYWGQGTQVTVSS”: the “polyreactivity (PSR sort gate)” value is “high polyreactivity”.

For “QVQLVESGGGLVQAGGSLRLSCAASGLSFGIYAIGWYRKAPGKERELVAAISRSGGSTYYADSVKGRFTISRDNAKNTVYLQMNSLKPEDTAVYYCAAPYYVGYDYWGQGTQVTVSS”, the “polyreactivity (PSR sort gate)” value is given as “high polyreactivity”. For “QVQLVESGGGLVQAGGSLRLSCAASGLSFRRYAMGWYRQAPGKEREFVATISRRGGSTRYADSVKGRFTISRDNAKNTVYLQMKSLKPEDTAVYYCNKVEYASIAKGYDYWGQGTQVTVSS”, the “polyreactivity (PSR sort gate)” value is “high polyreactivity”. Take “QVQLVESGGGLVQAGGSLRLSCAASGLSSLRMLWDGIDRRLGKKGSWLPLITSGGDSTNYADSVKGRFTISRDNAKNTVYLQMNSLKPEDTAVYYCAADLDYPYGYWGQGTQVTVSS”: the “polyreactivity (PSR sort gate)” value was “low polyreactivity”.

Take “QVQLVESGGGLVQAGGSLRLSCAASGLTCRYNAMGWYRQAPGKERELVAGIRISGGNTRYADAVKGRCTISRDNAKKSVYLQMNSLKPEDTAVYYCSALTGFYNLRPYGYWGQGTQVTVSS”: the “polyreactivity (PSR sort gate)” value was “high polyreactivity”.
